Results taken from publication PMC6026317 (2018).
Where two headings read alike, the source gives them in different places. Ends that are not written are not given here.

How the values were obtained:
[1] = biological target: T1, Soluble human FGFR1c/KLB receptor complex (FGFR1c ectodomain-Fc with soluble KLB) (human, UniProt P11362 22-376; Q86Z14 1-996); assay: AlphaScreen competition with biotinylated FGF21
[2] = biological target: T1, Soluble human FGFR1c/KLB receptor …; assay: AlphaScreen competition with biotinylated FGF21; remark: listed apart in the source

T1 sequence (P11362 22-376, chain 1 of 2): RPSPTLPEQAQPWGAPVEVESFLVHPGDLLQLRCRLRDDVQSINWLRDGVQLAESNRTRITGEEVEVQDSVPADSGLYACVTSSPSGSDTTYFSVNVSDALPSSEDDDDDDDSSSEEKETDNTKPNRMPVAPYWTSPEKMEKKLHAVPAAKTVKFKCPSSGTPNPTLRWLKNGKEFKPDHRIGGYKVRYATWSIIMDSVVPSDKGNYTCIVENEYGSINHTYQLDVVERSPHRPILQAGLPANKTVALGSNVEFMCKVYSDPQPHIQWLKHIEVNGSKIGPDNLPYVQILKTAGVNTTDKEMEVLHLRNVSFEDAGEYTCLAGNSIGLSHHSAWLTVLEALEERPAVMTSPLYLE
T1 sequence (Q86Z14 53-996, chain 2 of 2): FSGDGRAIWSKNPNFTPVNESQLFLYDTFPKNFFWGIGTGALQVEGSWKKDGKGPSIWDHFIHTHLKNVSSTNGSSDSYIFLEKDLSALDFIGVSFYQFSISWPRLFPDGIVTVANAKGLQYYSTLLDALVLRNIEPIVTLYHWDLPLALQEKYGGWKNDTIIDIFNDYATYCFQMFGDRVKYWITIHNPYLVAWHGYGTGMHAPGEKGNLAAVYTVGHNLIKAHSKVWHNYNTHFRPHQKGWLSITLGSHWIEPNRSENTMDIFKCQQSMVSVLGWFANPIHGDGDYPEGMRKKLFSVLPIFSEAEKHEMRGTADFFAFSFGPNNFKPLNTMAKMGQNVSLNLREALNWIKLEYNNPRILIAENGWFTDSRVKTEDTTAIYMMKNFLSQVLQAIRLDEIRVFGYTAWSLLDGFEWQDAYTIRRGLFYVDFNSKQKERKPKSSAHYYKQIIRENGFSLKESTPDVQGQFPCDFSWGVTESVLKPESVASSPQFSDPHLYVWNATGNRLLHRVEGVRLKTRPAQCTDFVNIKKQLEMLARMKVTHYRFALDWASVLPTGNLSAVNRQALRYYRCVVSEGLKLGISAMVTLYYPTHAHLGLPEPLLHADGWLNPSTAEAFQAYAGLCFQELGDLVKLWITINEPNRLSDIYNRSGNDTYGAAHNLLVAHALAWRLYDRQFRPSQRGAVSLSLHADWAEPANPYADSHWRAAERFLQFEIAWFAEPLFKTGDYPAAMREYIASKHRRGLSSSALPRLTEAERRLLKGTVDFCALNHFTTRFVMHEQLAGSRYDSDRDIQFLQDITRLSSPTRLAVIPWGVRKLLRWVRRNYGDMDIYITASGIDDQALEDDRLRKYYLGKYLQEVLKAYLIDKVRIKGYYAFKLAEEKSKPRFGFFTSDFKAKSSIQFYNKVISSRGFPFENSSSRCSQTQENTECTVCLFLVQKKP

Binder | IC50 [1] [nM] | IC50 [2] [nM]
PPDVGSSDPLSMVGPSQGRSPAYAS-NH2 [21C25 S178A] | 2870 | –
PPDVGSSDPLSMVGPSQGRAPSYAS-NH2 [21C25 S176A] | 3140 | –
PPDVGSSDPLSMVGPSQGRSASYAS-NH2 [21C25 P177A] | 2500 | –
PPDVGASDPLSMVGPSQGRSPSYAS-NH2 [21C25 S162A] | 2130 | –
PPDVGSSDPLSMVGPSQGRSPSAAS-NH2 [21C25 Y179A] | 2580 | –
PADVGSSDPLSMVGPSQGRSPSYAS-NH2 [21C25 P158A] | 890 | –
APDVGSSDPLSMVGPSQGRSPSYAS-NH2 [21C25 P157A] | 420 | –
PPDVGSSDPLSMVGPSQGRSPSYAS-NH2 [21C25 (C-terminal 25-residue peptide of FGF21)] | – | 150
PPDAGSSDPLSMVGPSQGRSPSYAS-NH2 [21C25 V160A] | 3980 | –
PPDVGSSDPLAMVGPSQGRSPSYAS-NH2 [21C25 S167A] | 200 | –
PPAVGSSDPLSMVGPSQGRSPSYAS-NH2 [21C25 D159A] | 1390 | –
PPDVGSSDPLSMAGPSQGRSPSYAS-NH2 [21C25 V169A] | 3110 | –

Now from value to binder:

IC50 [1] [nM] | IC50 [2] [nM] | Binder
150 | – | PPDVGSSDPLSMVGPSQARSPSYAS-NH2 [21C25 G174A]
50 | – | PPDVGSSDPLSMVGPSQGRSPSYAA-NH2 [21C25 S181A]
70 | – | PPDVGSSDPLSMVGPSAGRSPSYAS-NH2 [21C25 Q173A]
180 | – | PPDVGSSDPLSMVAPSQGRSPSYAS-NH2 [21C25 G170A]
190 | – | PPDVGSADPLSMVGPSQGRSPSYAS-NH2 [21C25 S163A]
160 | – | PPDVASSDPLSMVGPSQGRSPSYAS-NH2 [21C25 G161A]
50 | – | PPDVGSSDPLSMVGPSQGASPSYAS-NH2 [21C25 R175A]
130 | – | PPDVGSSDPLSMVGASQGRSPSYAS-NH2 [21C25 P171A]
120 | – | PPDVGSSDPLSMVGPAQGRSPSYAS-NH2 [21C25 S172A]
